Test results: paper PMC12774414

Target: LssaCA-His (L. striatellus salivary carbonic anhydrase lacking the signal peptide, C-terminal His tag) (Laodelphax striatellus)
Test: MST; 10 µM LssaCA^sp- (His-fusion) labelled with NT-647 (RED-NHS), added to serially diluted GST-NP or MBP-OsTLP^sp-; initial concentration 40 µM, 0.1% (v/v) Tween 20; Monolith NT.115; KD Fit

Substance	Kd [nM]
GST-NP (rice stripe virus nucleocapsid protein, GST fusion) (natural protein)	2700
MBP-OsTLP (Oryza sativa thaumatin-like protein without its signal peptide, N-terminal MBP fusion) (enzyme)	1300
